Measured values taken from patent publication US9504755B2, “Multi-arm polymeric alkanoate conjugates” (Nektar Therapeutics, priority 2008, dated 2016).

What was measured:
[1] = Plasma and tumor pharmacokinetics in H460 tumor-bearing nude mice; assay type: in vivo, mouse; settings: for AUClast, analyte docetaxel, plasma / AUClast, analyte docetaxel, tumor / Tmax, analyte docetaxel, plasma / Tmax, analyte docetaxel, tumor / Cmax, analyte docetaxel, plasma / Cmax, analyte docetaxel, tumor: single IV; for AUClast, analyte docetaxel, plasma / AUClast, analyte docetaxel, tumor: 25 mg/kg docetaxel or 33 mg/kg conjugate (MTDs); for Tmax, analyte docetaxel, plasma / Tmax, analyte docetaxel, tumor / Cmax, analyte docetaxel, plasma / Cmax, analyte docetaxel, tumor: 25 mg/kg docetaxel or 33 mg/kg conjugate
Experimental: To assess whether the improved antitumor activity was due to greater plasma and tumor docetaxel exposure following 4-ARM-PEG20K-BA-DOC administration, plasma and tumor homogenates were analyzed after a single IV administration of 4-ARM-PEG20K-BA-DOC or docetaxel in mice bearing H460 tumors. In looking at each of 4-ARM-PEG20K-BA-DOC and docetaxel dosed at their respective maximum tolerated doses (MTDs) of 33 and 25 mg/kg, the following was observed. […] The maximum plasma docetaxel concentration with 4-ARM-PEG20K-BA-DOC was 13-fold lower than that with docetaxel.
The objective of this study was to compare docetaxel pharmacokinetics following 4-ARM-PEG20K-BA-docetaxel with that following docetaxel administration, in plasma and tumor tissue of athymic female mice bearing H460 NSCLC tumors and to determine the effects on complete blood counts. This example summarizes the pharmacokinetic results.
H460 tumor cells were grown in vitro and implanted subcutaneously into female HRLN nude mice. When tumor sizes reached between 172 and 288 mg, animals were dosed by intravenous bolus injection with 25 mg/kg docetaxel or 33 mg/kg 4-ARM-PEG20K-BA-docetaxel at a dosing volume of 10 mL/kg. These dose levels correspond to the maximum tolerated doses for docetaxel and 4-ARM-PEG20K-BA-docetaxel administered on a q7d×3 schedule in this tumor model. Blood and tumor samples (n=7 timepoints with n=3/timepoint) were collected from 0 to 7 days after IV injection. Plasma and tumor samples were analyzed for docetaxel and 4-ARM-PEG20K-BA-docetaxel.

[2] = Stability in mouse plasma; assay type: in vitro ADME; settings: 37° C.
Experimental: (§1) The objective of the study was to assess the stability of 4-ARM-PEG20K-BA-docetaxel in mouse, rat, dog, and human plasma.
(§2) 4-ARM-PEG20K-BA-docetaxel was spiked ([…]; 60 μM) into heparinized, pooled male mouse, rat, and dog plasma; mixed sex pooled human plasma; and phosphate buffered saline. Triplicate samples were incubated at 37° C. for 0, 15, 30, 60, 120, and 240 min. Aliquots were removed at each timepoint and analyzed for disappearance of 4-ARM-PEG20K-BA-docetaxel and appearance of docetaxel using the validated dog plasma analytical method.

Stability in rat plasma = assay type: in vitro ADME; settings: 37° C.
Experimental: as §1, §2

Stability in dog plasma = assay type: in vitro ADME; settings: 37° C.
Experimental: as §1, §2

[3] = Stability in human plasma; assay type: in vitro ADME; settings: 37° C.
Experimental: as §1, §2

[4] = Stability in phosphate buffered saline; assay type: physicochemical; settings: 37° C.
Experimental: as §1, §2

[5] = 19 mg/kg conjugate (extrapolated) vs 25 mg/kg docetaxel
[6] = 33 mg/kg conjugate vs 25 mg/kg docetaxel
[7] = 33 mg/kg conjugate vs 25 mg/kg docetaxel, listed as Conjugate Lot 1
[8] = 33 mg/kg conjugate vs 25 mg/kg docetaxel, listed as Conjugate Lot 2
[9] = single IV 33 mg/kg conjugate, listed as Conjugate Lot 1, 33 mg/kg
[10] = single IV 33 mg/kg conjugate, listed as Conjugate Lot 2, 33 mg/kg
[11] = listed as 4-ARM-PEG20K-BA-docetaxel
[12] = female, HRLN nude, mouse, in vivo, iv, 25 mg/kg, analyte docetaxel, tumor

For “4-ARM-PEG20K-Butanoate-Linked Docetaxel Conjugate [4-ARM-PEG20K-BA-DOC]”, the “AUC, docetaxel in plasma” value ([1]; 19 mg/kg (58% MTD), extrapolated from the 33 mg/kg dose) was 3488^# hr*ng/mL, the “4-ARM-PEG20K-BA-DOC to Docetaxel Ratio, plasma AUC” value [1, 5] was 0.6 and the “4-ARM-PEG20K-BA-DOC to Docetaxel Ratio, tumor AUC” value [1, 5] was 1.3. For the same compound, the “conjugate AUC, fold lower in tumor compared to plasma” value ([1]; 33 mg/kg) was “approximately 2 fold”, the “conjugate Cmax, fold lower in tumor compared to plasma” value ([1]; 33 mg/kg) was 17 fold and the “Conjugate to Docetaxel ratio, AUC, docetaxel in plasma” value [1, 6] was 1.0. For the same compound, the “Conjugate to Docetaxel ratio, AUC, docetaxel in tumor” value [1, 6] was 2.3, the “maximum plasma docetaxel concentration, fold lower than with docetaxel” value [1, 6] was 13 fold and the “plasma docetaxel AUC compared with docetaxel treatment” value [1, 6] was “similar”. For the same compound, the “tumor docetaxel AUC, fold greater than for docetaxel” value [1, 6] was 2 fold, the “maximum plasma docetaxel concentration, fold lower than with docetaxel” value ([1]; 33 mg/kg conjugate vs 25 mg/kg docetaxel, listed as 4-ARM-PEG20K-BA-docetaxel) was “about 14 fold” and the “Conjugate to Docetaxel ratio, AUC, docetaxel in plasma” value [1, 7] was 1.0. The “Conjugate to Docetaxel ratio, AUC, docetaxel in tumor” value [1, 7] was 2.3, the “Conjugate to Docetaxel ratio, Cmax, docetaxel in plasma” value [1, 7] was 0.08 and the “Conjugate to Docetaxel ratio, Cmax, docetaxel in tumor” value [1, 7] was 1.3. The “Conjugate to Docetaxel ratio, AUC, docetaxel in plasma” value [1, 8] was 0.9, the “Conjugate to Docetaxel ratio, AUC, docetaxel in tumor” value [1, 8] was 2.7 and the “Conjugate to Docetaxel ratio, Cmax, docetaxel in plasma” value [1, 8] was 0.06. For the same compound, the “Conjugate to Docetaxel ratio, Cmax, docetaxel in tumor” value [1, 8] was 2.0, the “conjugate tumor to plasma ratio” value ([1]; by 168 hr post-dose, 33 mg/kg) was “about 7” and the plasma docetaxel concentration ([1]; for up to 168 hr after single IV 33 mg/kg conjugate) was “above 5 ng/mL”. For the same compound, the “tumor docetaxel concentrations, fold higher than after docetaxel” value ([1]; from 24 hr post dose through the end of sampling) was “approximately 5 fold”, the “Tmax, analyte conjugate, plasma” value ([1]; single IV 33 mg/kg conjugate) was 0.5 h and the “Tmax, analyte conjugate, tumor” value ([1]; single IV 33 mg/kg conjugate, listed as 4-ARM-PEG20K-BA-docetaxel, 33 mg/kg) was ≤ 4 h. The “AUClast, analyte conjugate, plasma” value [1, 9] was 1097.606 µg·h/mL, the “AUClast, analyte conjugate, tumor” value [1, 9] was 652.823 µg·h/mL and the “Cmax, analyte conjugate, plasma” value [1, 9] was 128354 ng/mL. For the same compound, the “Cmax, analyte conjugate, tumor” value [1, 9] was 7062 ng/mL, the “Tmax, analyte conjugate, tumor” value [1, 9] was 4 h and the “AUClast, analyte conjugate, plasma” value [1, 10] was 1852.51 µg·h/mL. The “AUClast, analyte conjugate, tumor” value [1, 10] was 718.068 µg·h/mL, the “Cmax, analyte conjugate, plasma” value [1, 10] was 118209 ng/mL and the “Cmax, analyte conjugate, tumor” value [1, 10] was 7675 ng/mL. The “AUClast, analyte docetaxel, plasma” value [1] was 6.013 µg·h/mL, the “AUClast, analyte docetaxel, tumor” value [1] was 313,558 hr*ng/mL and the “AUClast, analyte docetaxel, tumor” value ([1]; listed as Conjugate Lot 1) was 313558 ng·h/mL. The “AUClast, analyte docetaxel, plasma” value ([1]; listed as Conjugate Lot 2) was 5.57 µg·h/mL, the “AUClast, analyte docetaxel, tumor” value ([1]; listed as Conjugate Lot 2) was 380617 ng·h/mL and the “Tmax, analyte docetaxel, plasma” value [1, 11] was 0.5 h. For the same compound, the “Tmax, analyte docetaxel, tumor” value [1, 11] was ≤ 12 h, the “Cmax, analyte docetaxel, plasma” value ([1]; listed as Conjugate Lot 1) was 195 ng/mL and the “Cmax, analyte docetaxel, tumor” value ([1]; listed as Conjugate Lot 1) was 2931 ng/mL. The “Tmax, analyte docetaxel, plasma” value ([1]; listed as Conjugate Lot 1) was 12 h, the “Tmax, analyte docetaxel, tumor” value ([1]; listed as Conjugate Lot 1) was 12 h and the “Cmax, analyte docetaxel, plasma” value ([1]; listed as Conjugate Lot 2) was 162 ng/mL. The “Cmax, analyte docetaxel, tumor” value ([1]; listed as Conjugate Lot 2) was 4623 ng/mL, the “Conjugate remaining at 4 hr (%)” value ([2]; 60 μM) was 72% and the “Docetaxel released at 4 hr (%)” value ([2]; 60 μM) was 20%. The “Mass balance (%)” value ([2]; 4 hr) was 92%, the “Conjugate remaining at 4 hr (%)” value (Stability in rat plasma; 60 μM) was 64% and the “Docetaxel released at 4 hr (%)” value (Stability in rat plasma; 60 μM) was 20%. For the same compound, the “Mass balance (%)” value (Stability in rat plasma; 4 hr) was 84%, the “Conjugate remaining at 4 hr (%)” value (Stability in dog plasma; 60 μM) was 93% and the “Docetaxel released at 4 hr (%)” value (Stability in dog plasma; 60 μM) was 3%. The “Mass balance (%)” value (Stability in dog plasma; 4 hr) was 95%, the “Conjugate remaining at 4 hr (%)” value ([3]; 60 μM) was 88% and the “Docetaxel released at 4 hr (%)” value ([3]; 60 μM) was 4%. The “Mass balance (%)” value ([3]; 4 hr) was 92%, the “Docetaxel released at 4 hr (%)” value ([4]; 60 μM) was 0.6% and the “Mass balance (%)” value ([4]; 4 hr) was 86%.
For `CC(=O)O[C@@]12CO[C@@H]1C[C@H](O)[C@@]1(C)C(=O)[C@H](O)C3=C(C)[C@@H](OC(=O)[C@H](O)[C@@H](NC(=O)OC(C)(C)C)c4ccccc4)C[C@@](O)([C@@H](OC(=O)c4ccccc4)[C@H]21)C3(C)C` [Docetaxel, reference compound], the concentration at 72 hr ([1]; female, HRLN nude, mouse, in vivo, iv, 25 mg/kg) was < 1 ng/mL, the AUC(0-t) ([1]; female, HRLN nude, mouse, in vivo, iv, 25 mg/kg, AUClast, analyte docetaxel, tumor) was 139 µg·h/mL and the Cmax ([1]; female, HRLN nude, mouse, in vivo, iv, 25 mg/kg, analyte docetaxel, plasma) was 2570 ng/mL. The Cmax [1, 12] was 2340 ng/mL, the Tmax [1, 12] was 4 h and the Tmax ([1]; female, HRLN nude, mouse, in vivo, iv, analyte docetaxel, plasma) was 0.5 h. The Tmax ([1]; female, HRLN nude, mouse, in vivo, iv, analyte docetaxel, tumor) was ≤ 4 h.
